Laboratory results published in article PMC10916880 (Molecular Biology of the Cell, 2024).
Blank lines part the entries; values can stand above or below the binder they belong to.

Assays:
[1] = molecular target: microtubules assembled from purified beta-R380C yeast tubulin (Tub1/Tub2-R380C) (yeast, UniProt P09733 1-447; P02557 1-457, R380C); experiment: single-molecule TIRF microscopy of kinesin-GFP on surface-attached microtubules
[2] = molecular target: microtubules assembled from purified wildtype yeast tubulin (Tub1/Tub2 heterodimer) (yeast, UniProt P09733 1-447; P02557 1-457); experiment: as above

increase in binding frequency relative to wildtype microtubules [1]: 29%
plus-end dwell time relative to wildtype microtubules [1]: 2 fold
B1: full-length mouse Kif21a fused to GFP (natural protein, UniProt Q9QXL2 1-1672, looked up)
chain: MLGAADESSVRVAVRIRPQLAKEKIEGCHICTSVTPGEPQVFLGKDKAFTFDYVFDIDSQQEQIYTQCIEKLIEGCFEGYNATVFAYGQTGAGKTYTMGTGFDVNIMEEEQGIISRAVRHLFKSIDEKKTSAIKNGLPPPEFKVNAQFLELYNEEVLDLFDTTRDIDAKNKKSNIRIHEDSTGGIYTVGVTTRTVNTEPEMMQCLKLGALSRTTASTQMNVQSSRSHAIFTIHVCQTRVCPQTDAENATDNKLISESSPMNEFETLTAKFHFVDLAGSERLKRTGATGERAKEGISINCGLLALGNVISALGDKSKRATHVPYRDSKLTRLLQDSLGGNSQTIMIACVSPSDRDFMETLNTLKYANRARNIKNKVMVNQDRASQQINALRSEITRLQMELMEYKTGKRIIDEEGVESINDMFHENAMLQTENNNLRVRIKAMQETVDALRARITQLVSEQANQVLARAGEGNEEISNMIHSYIKEIEDLRAKLLESEAVNENLRKNLTRATARSPYFSASSAFSPTILSSDKETIEIIDLAKKDLEKLKRKEKKKKKRLQKLEESGREERSVAGKDDNADTDQEKKEEKGVSEKENNELDVEENQEVSDHEDEEEEEEDEEEEDDIEGEESSDESDSESDEKANYQADLANITCEIAIKQKLIDELENSQKRLQTLKKQYEEKLMMLQHKIRDTQLERDQVLQNLGSVESYSEEKAKKVKCEYEKKLHAMNKELQRLQTAQKEHARLLKNQSQYEKQLKKLQQDVMEMKKTKVRLMKQMKEEQEKARLTESRRNREIAQLKKDQRKRDHQLRLLEAQKRNQEVVLRRKTEEVTALRRQVRPMSDKVAGKVTRKLSSSESPAPDTGSSAASGEADTSRPGTQQKMRIPVARVQALPTPTTNGTRKKYQRKGFTGRVFTSKTARMKWQLLERRVTDIIMQKMTISNMEADMNRLLRQREELTKRREKLSKRREKIVKESGEGDKSVANIIEEMESLTANIDYINDSIADCQANIMQMEEAKEEGETLDVTAVINACTLTEARYLLDHFLSMGINKGLQAAQKEAQIKVLEGRLKQTEITSATQNQLLFHMLKEKAELNPELDALLGHALQDLDGAPPENEEDSSEEDGPLHSPGSEGSTLSSDLMKLCGEVKPKNKARRRTTTQMELLYADSSEVASDTSAGDASLSGPLAPVAEGQEIGMNTETSGTSARDKELLAPSGLPSKIGSISRQSSLSEKKVPEPSPVTRRKAYEKADKPKAKEHKHSDSGASETSLSPPSSPPSRPRNELNVFNRLTVPQGTPSVQQDKSDESDSSLSEVHRGIINPFPACKGVRASPLQCVHIAEGHTKAVLCVDSTDDLLFTGSKDRTCKVWNLVTGQEIMSLGVHPNNVVSVKYCNYTSLVFTVSTSYIKVWDIRESAKCIRTLTSSGQVTLGEACSASTSRTVAIPSGESQINQIALNPTGTFLYAASGNAVRMWDLKRFQSTGKLTGHLGPVMCLTVDQISNGQDLIITGSKDHYIKMFDVTEGALGTVSPTHNFEPPHYDGIEALAIQGDNLFSGSRDNGIKKWDLAQKGLLQQVPNAHKDWVCALGLVPGHPVLLSGCRGGILKLWNVDTFVPVGEMRGHDSPINAICVNSTHVFTAADDRTVRIWKAHNLQDGQLSDTGDLGEDIASN

fold increase in binding relative to full-length Kif21a [2]: ~100 fold
increase in binding frequency relative to wildtype microtubules [1]: 31%
increase in plus-end dwell time relative to wildtype microtubules [1]: 45%
plus-end dwell time relative to wildtype microtubules, high salt [1]: ~2 fold
B2: truncated mouse Kif21a-917 fused to GFP (domain or fragment, UniProt Q9QXL2 1-917, looked up)
chain: MLGAADESSVRVAVRIRPQLAKEKIEGCHICTSVTPGEPQVFLGKDKAFTFDYVFDIDSQQEQIYTQCIEKLIEGCFEGYNATVFAYGQTGAGKTYTMGTGFDVNIMEEEQGIISRAVRHLFKSIDEKKTSAIKNGLPPPEFKVNAQFLELYNEEVLDLFDTTRDIDAKNKKSNIRIHEDSTGGIYTVGVTTRTVNTEPEMMQCLKLGALSRTTASTQMNVQSSRSHAIFTIHVCQTRVCPQTDAENATDNKLISESSPMNEFETLTAKFHFVDLAGSERLKRTGATGERAKEGISINCGLLALGNVISALGDKSKRATHVPYRDSKLTRLLQDSLGGNSQTIMIACVSPSDRDFMETLNTLKYANRARNIKNKVMVNQDRASQQINALRSEITRLQMELMEYKTGKRIIDEEGVESINDMFHENAMLQTENNNLRVRIKAMQETVDALRARITQLVSEQANQVLARAGEGNEEISNMIHSYIKEIEDLRAKLLESEAVNENLRKNLTRATARSPYFSASSAFSPTILSSDKETIEIIDLAKKDLEKLKRKEKKKKKRLQKLEESGREERSVAGKDDNADTDQEKKEEKGVSEKENNELDVEENQEVSDHEDEEEEEEDEEEEDDIEGEESSDESDSESDEKANYQADLANITCEIAIKQKLIDELENSQKRLQTLKKQYEEKLMMLQHKIRDTQLERDQVLQNLGSVESYSEEKAKKVKCEYEKKLHAMNKELQRLQTAQKEHARLLKNQSQYEKQLKKLQQDVMEMKKTKVRLMKQMKEEQEKARLTESRRNREIAQLKKDQRKRDHQLRLLEAQKRNQEVVLRRKTEEVTALRRQVRPMSDKVAGKVTRKLSSSESPAPDTGSSAASGEADTSRPGTQQKMRIPVARVQALPTPTTNGTRKKYQRKGFTGRVFT
